Assay results published in patent US20160109449A1 (JULIUS MAXIMILIANS UNIVERSITAET WUERZBURG, published 2016).

Tests used:
[1] = target: IsaA oligopeptide SEQ ID NO: 10 (Staphylococcus aureus); assay: peptide array on glass slide, fluorescent secondary antibody
[2] = target: IsaA oligopeptide SEQ ID NO: 11 (Staphylococcus aureus); assay: as above
[3] = target: IsaA oligopeptide SEQ ID NO: 12 (Staphylococcus aureus); assay: as above
[4] = target: IsaA oligopeptide SEQ ID NO: 15 (Staphylococcus aureus); assay: as above
[5] = target: IsaA oligopeptide SEQ ID NO: 17 (Staphylococcus aureus); assay: as above
[6] = target: IsaA oligopeptide SEQ ID NO: 18 (Staphylococcus aureus); assay: as above
[7] = target: IsaA oligopeptide SEQ ID NO: 19 (Staphylococcus aureus); assay: as above
[8] = target: IsaA oligopeptide SEQ ID NO: 20 (Staphylococcus aureus); assay: as above
[9] = target: IsaA oligopeptide SEQ ID NO: 21 (Staphylococcus aureus); assay: as above
[10] = target: IsaA oligopeptide SEQ ID NO: 22 (Staphylococcus aureus); assay: as above
[11] = target: IsaA oligopeptide SEQ ID NO: 24 (Staphylococcus aureus); assay: as above
[12] = target: IsaA oligopeptide SEQ ID NO: 25 (Staphylococcus aureus); assay: as above
[13] = target: IsaA oligopeptide SEQ ID NO: 27 (Staphylococcus aureus); assay: as above
[14] = target: IsaA oligopeptide SEQ ID NO: 32 (Staphylococcus aureus); assay: as above
[15] = target: IsaA oligopeptide SEQ ID NO: 33 (Staphylococcus aureus); assay: as above
[16] = target: IsaA oligopeptide SEQ ID NO: 34 (Staphylococcus aureus); assay: as above
[17] = target: IsaA oligopeptide SEQ ID NO: 35 (Staphylococcus aureus); assay: as above
[18] = target: IsaA oligopeptide SEQ ID NO: 37 (Staphylococcus aureus); assay: as above
[19] = target: IsaA oligopeptide SEQ ID NO: 38 (Staphylococcus aureus); assay: as above
[20] = target: IsaA oligopeptide SEQ ID NO: 41 (Staphylococcus aureus); assay: as above
[21] = target: IsaA oligopeptide SEQ ID NO: 42 (Staphylococcus aureus); assay: as above
[22] = target: IsaA oligopeptide SEQ ID NO: 44 (Staphylococcus aureus); assay: as above
[23] = target: IsaA oligopeptide SEQ ID NO: 45 (Staphylococcus aureus); assay: as above
[24] = target: IsaA oligopeptide SEQ ID NO: 47 (Staphylococcus aureus); assay: as above
[25] = target: IsaA oligopeptide SEQ ID NO: 48 (Staphylococcus aureus); assay: as above
[26] = target: IsaA oligopeptide SEQ ID NO: 49 (Staphylococcus aureus); assay: as above
[27] = target: IsaA oligopeptide SEQ ID NO: 52 (Staphylococcus aureus); assay: as above
[28] = target: IsaA oligopeptide SEQ ID NO: 53 (Staphylococcus aureus); assay: as above
[29] = target: IsaA oligopeptide SEQ ID NO: 54 (Staphylococcus aureus); assay: as above
[30] = target: IsaA oligopeptide SEQ ID NO: 55 (Staphylococcus aureus); assay: as above
[31] = target: IsaA oligopeptide SEQ ID NO: 56 (Staphylococcus aureus); assay: as above
[32] = target: IsaA oligopeptide SEQ ID NO: 57 (Staphylococcus aureus); assay: as above
[33] = target: IsaA oligopeptide SEQ ID NO: 58 (Staphylococcus aureus); assay: as above
[34] = target: IsaA oligopeptide SEQ ID NO: 59 (Staphylococcus aureus); assay: as above
[35] = target: IsaA oligopeptide SEQ ID NO: 61 (Staphylococcus aureus); assay: as above
[36] = target: IsaA oligopeptide SEQ ID NO: 62 (Staphylococcus aureus); assay: as above
[37] = target: IsaA oligopeptide SEQ ID NO: 63 (Staphylococcus aureus); assay: as above
[38] = target: IsaA oligopeptide SEQ ID NO: 64 (Staphylococcus aureus); assay: as above
[39] = target: IsaA oligopeptide SEQ ID NO: 9 (Staphylococcus aureus); assay: as above
[40] = target: T1, recombinant IsaA protein of Staphylococcus aureus (29 kDa immunodominant antigen IsaA) (Staphylococcus aureus, UniProt Q2FV52 30-233, limits assumed); assay: SPR (BIACORE 2000), biotinylated IsaA on streptavidin chip, antibody as analyte
T1 construct: Coated as rIsaA in the ELISA; In the first SPR experiment it was N-biotinylated with sulfo-NHS-LC-biotin (mostly at a single site) and immobilised on streptavidin; In the second SPR experiment it was the analyte in solution; also called rIsaA; 29 kDa IsaA antigen
T1 sequence (looked up): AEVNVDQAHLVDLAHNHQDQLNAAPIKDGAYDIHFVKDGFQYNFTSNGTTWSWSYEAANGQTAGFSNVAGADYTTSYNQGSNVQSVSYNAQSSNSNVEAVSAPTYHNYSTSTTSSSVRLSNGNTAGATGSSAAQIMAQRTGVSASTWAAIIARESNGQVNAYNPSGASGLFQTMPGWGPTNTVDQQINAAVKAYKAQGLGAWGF
Protocol: The amount of the immobilized antigen corresponds to about 100 resonance units [RU] measured by means of the BIACORE®2000 system.
Interaction analyses were performed using HBS150 buffer (10 mM HEPES pH7.4, 150 mM NaCl, 3.4 mM EDTA). Sensorgrams were recorded at a flow rate of 10 μl/min at 25° C. The association and dissociation time was set to 10 min. The chips were regenerated after each cycle with different regeneration solutions (A: 1 mM CH₃COOH, 1 M NaCl, pH 3; B: 4 M MgCl₂; C: 1 mM CH₃COOH, 1 M NaCl, 6 M Urea, pH 3) for 2 min.

## control antibodies (peptide array) (antibody)
[1]
  Binding (fluorescence intensity): 160
[2]
  Binding (fluorescence intensity): -11
[3]
  Binding (fluorescence intensity): -22
[4]
  Binding (fluorescence intensity): 107
[5]
  Binding (fluorescence intensity): 48
[6]
  Binding (fluorescence intensity): -119
[7]
  Binding (fluorescence intensity): 83.7
[8]
  Binding (fluorescence intensity): 106
[9]
  Binding (fluorescence intensity): 182
[10]
  Binding (fluorescence intensity): 26.3
[11]
  Binding (fluorescence intensity): 79.3
[12]
  Binding (fluorescence intensity): -61.7
[13]
  Binding (fluorescence intensity): 81
[14]
  Binding (fluorescence intensity): 98.3
[15]
  Binding (fluorescence intensity): -0.7
[16]
  Binding (fluorescence intensity): 98.7
[17]
  Binding (fluorescence intensity): 110
[18]
  Binding (fluorescence intensity): -27.3
[19]
  Binding (fluorescence intensity): 97.7
[20]
  Binding (fluorescence intensity): 29.3
[21]
  Binding (fluorescence intensity): 35.7
[22]
  Binding (fluorescence intensity): 114
[23]
  Binding (fluorescence intensity): -4.3
[24]
  Binding (fluorescence intensity): 14.7
[25]
  Binding (fluorescence intensity): 398
[26]
  Binding (fluorescence intensity): 40
[27]
  Binding (fluorescence intensity): -60
[28]
  Binding (fluorescence intensity): 70.3
[29]
  Binding (fluorescence intensity): -51.7
[30]
  Binding (fluorescence intensity): 36
[31]
  Binding (fluorescence intensity): -17.3
[32]
  Binding (fluorescence intensity): 313
[33]
  Binding (fluorescence intensity): 46.3
[34]
  Binding (fluorescence intensity): 132
[35]
  Binding (fluorescence intensity): 30.3
[36]
  Binding (fluorescence intensity): 6.3
[37]
  Binding (fluorescence intensity): 57.7
[38]
  Binding (fluorescence intensity): 42
[39]
  Binding (fluorescence intensity): 70

B1: monoclonal antibody MAB-UK-66 secreted by hybridoma cell line DSM ACC2987 (antibody, V domains shown)
VH: DVKLVESGGGLVKLGGSLKLSCSASGFTFSNYYMSWVRQTPEKRLELVADINGNGGSTYYPDTVKGRFTISRDNAKNTLYLQMSSLKSEDTALYYCVRRGGYYALDYWGQGTTVTVSS
VL: DVVMTQTPLSLPVSLGDQASISCRSSQSLVHINGNTYLHWYLQKPGQSPKLLIYRVSNRFSGVPDRFSGSGSGTDFTLKISRVEAEDLGVYFCSQSTHVPWTFGGGTKLELKR
notes: Monoclonal mouse antibody from a hybridoma; Detected with anti-mouse IgG; also called antibodies secreted by cell line DSM ACC2987; anti-IsaA MAB
[40]
  koff: < 1e-05 s⁻¹
